Results: US20140087995A1 (published 2014)
Numbered stars: 1 amine (or outer) side, 2 acyl side, 3 side chain; on linkers, the order of the positions; unused ones are H or OH. Bridge positions count the residues as written; N and C are the ends. Side chains are listed from the residue outwards. Ends that are not written are not given here. * marks the point of attachment. C20 diacid = O=C(O)CCCCCCCCCCCCCCCCCCC(=O)*; C18 diacid = O=C(O)CCCCCCCCCCCCCCCCC(=O)*; γGlu = O=C(O)[C@H](CCC(=O)[*:2])N[*:1]; AEEA = NCCOCCOCC(=O)O

T1: human calcitonin receptor (human, UniProt P30988 25-474)
T1 construct: whole, on cells; also called hCTR; hCT
T1 sequence (looked up): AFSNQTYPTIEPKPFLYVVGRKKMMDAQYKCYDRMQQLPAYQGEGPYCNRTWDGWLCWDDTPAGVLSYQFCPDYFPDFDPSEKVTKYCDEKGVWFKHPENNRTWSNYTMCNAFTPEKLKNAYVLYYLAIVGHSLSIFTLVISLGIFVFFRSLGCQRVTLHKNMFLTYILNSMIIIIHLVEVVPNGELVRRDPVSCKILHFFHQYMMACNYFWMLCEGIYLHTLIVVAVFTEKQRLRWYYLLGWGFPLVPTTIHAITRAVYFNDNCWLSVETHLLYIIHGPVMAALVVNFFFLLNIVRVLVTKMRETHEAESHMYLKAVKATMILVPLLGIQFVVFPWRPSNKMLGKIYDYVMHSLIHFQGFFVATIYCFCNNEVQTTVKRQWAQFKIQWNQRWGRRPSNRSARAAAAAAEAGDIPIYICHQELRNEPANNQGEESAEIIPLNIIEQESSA

T2: human calcitonin receptor (human, UniProt P30988 25-474)
T2 construct: whole, on cells; Assayed as cell membranes of BHK tk'ts 13 cells stably transfected with the human calcitonin receptor (Assay VII); also called hCTR; hCT
T2 sequence (looked up): T1 sequence (looked up)

B1: N^ε1-[(4S)-4-carboxy-4-(17-carboxyheptadecanoylamino)butanoyl]-[Arg17,Pro21,Pro27,His34]-h-amylin (peptide)
peptide: K([γGlu-C18 diacid])CNTATCATQRLANFLRHSSPNFGAIPSSTNVGHNTY-NH2
modifications: disulfide 2-7; N-terminus assumed
SMILES: CC[C@H](C)[C@H](NC(=O)[C@H](C)NC(=O)CNC(=O)[C@H](Cc1ccccc1)NC(=O)[C@H](CC(N)=O)NC(=O)[C@@H]1CCCN1C(=O)[C@H](CO)NC(=O)[C@H](CO)NC(=O)[C@H](Cc1c[nH]cn1)NC(=O)[C@H](CCCNC(=N)N)NC(=O)[C@H](CC(C)C)NC(=O)[C@H](Cc1ccccc1)NC(=O)[C@H](CC(N)=O)NC(=O)[C@H](C)NC(=O)[C@H](CC(C)C)NC(=O)[C@H](CCCNC(=N)N)NC(=O)[C@H](CCC(N)=O)NC(=O)[C@@H](NC(=O)[C@H](C)NC(=O)[C@@H]1CSSC[C@H](NC(=O)[C@@H](N)CCCCNC(=O)CC[C@H](NC(=O)CCCCCCCCCCCCCCCCC(=O)O)C(=O)O)C(=O)N[C@@H](CC(N)=O)C(=O)N[C@@H]([C@@H](C)O)C(=O)N[C@@H](C)C(=O)N[C@@H]([C@@H](C)O)C(=O)N1)[C@@H](C)O)C(=O)N1CCC[C@H]1C(=O)N[C@@H](CO)C(=O)N[C@@H](CO)C(=O)N[C@H](C(=O)N[C@@H](CC(N)=O)C(=O)N[C@H](C(=O)NCC(=O)N[C@@H](Cc1c[nH]cn1)C(=O)N[C@@H](CC(N)=O)C(=O)N[C@H](C(=O)N[C@@H](Cc1ccc(O)cc1)C(N)=O)[C@@H](C)O)C(C)C)[C@@H](C)O
B2: N^ε1-[2-[2-[2-[[(4S)-4-carboxy-4-(19-carboxynonadecanoylamino)butanoyl]amino]ethoxy]ethoxy]acetyl]-[His14,Arg17,Pro21,Pro27]-h-amylin (peptide)
peptide: K([AEEA-γGlu-C20 diacid])CNTATCATQRLAHFLRHSSPNFGAIPSSTNVGSNTY-NH2
modifications: disulfide 2-7; N-terminus assumed
SMILES: CC[C@H](C)[C@H](NC(=O)[C@H](C)NC(=O)CNC(=O)[C@H](Cc1ccccc1)NC(=O)[C@H](CC(N)=O)NC(=O)[C@@H]1CCCN1C(=O)[C@H](CO)NC(=O)[C@H](CO)NC(=O)[C@H](Cc1c[nH]cn1)NC(=O)[C@H](CCCNC(=N)N)NC(=O)[C@H](CC(C)C)NC(=O)[C@H](Cc1ccccc1)NC(=O)[C@H](Cc1c[nH]cn1)NC(=O)[C@H](C)NC(=O)[C@H](CC(C)C)NC(=O)[C@H](CCCNC(=N)N)NC(=O)[C@H](CCC(N)=O)NC(=O)[C@@H](NC(=O)[C@H](C)NC(=O)[C@@H]1CSSC[C@H](NC(=O)[C@@H](N)CCCCNC(=O)COCCOCCNC(=O)CC[C@H](NC(=O)CCCCCCCCCCCCCCCCCCC(=O)O)C(=O)O)C(=O)N[C@@H](CC(N)=O)C(=O)N[C@@H]([C@@H](C)O)C(=O)N[C@@H](C)C(=O)N[C@@H]([C@@H](C)O)C(=O)N1)[C@@H](C)O)C(=O)N1CCC[C@H]1C(=O)N[C@@H](CO)C(=O)N[C@@H](CO)C(=O)N[C@H](C(=O)N[C@@H](CC(N)=O)C(=O)N[C@H](C(=O)NCC(=O)N[C@@H](CO)C(=O)N[C@@H](CC(N)=O)C(=O)N[C@H](C(=O)N[C@@H](Cc1ccc(O)cc1)C(N)=O)[C@@H](C)O)C(C)C)[C@@H](C)O
notes: also called compound 69
B3: N^ε1-[(4S)-4-carboxy-4-[[(4S)-4-carboxy-4-(19-carboxynonadecanoylamino)butanoyl]amino]butanoyl]-[Asp14,Arg17,Pro21,Pro27,Arg35]-h-amylin (peptide)
peptide: K([γGlu-γGlu-C20 diacid])CNTATCATQRLADFLRHSSPNFGAIPSSTNVGSRTY-NH2
modifications: disulfide 2-7; N-terminus assumed
SMILES: CC[C@H](C)[C@H](NC(=O)[C@H](C)NC(=O)CNC(=O)[C@H](Cc1ccccc1)NC(=O)[C@H](CC(N)=O)NC(=O)[C@@H]1CCCN1C(=O)[C@H](CO)NC(=O)[C@H](CO)NC(=O)[C@H](Cc1c[nH]cn1)NC(=O)[C@H](CCCNC(=N)N)NC(=O)[C@H](CC(C)C)NC(=O)[C@H](Cc1ccccc1)NC(=O)[C@H](CC(=O)O)NC(=O)[C@H](C)NC(=O)[C@H](CC(C)C)NC(=O)[C@H](CCCNC(=N)N)NC(=O)[C@H](CCC(N)=O)NC(=O)[C@@H](NC(=O)[C@H](C)NC(=O)[C@@H]1CSSC[C@H](NC(=O)[C@@H](N)CCCCNC(=O)CC[C@H](NC(=O)CC[C@H](NC(=O)CCCCCCCCCCCCCCCCCCC(=O)O)C(=O)O)C(=O)O)C(=O)N[C@@H](CC(N)=O)C(=O)N[C@@H]([C@@H](C)O)C(=O)N[C@@H](C)C(=O)N[C@@H]([C@@H](C)O)C(=O)N1)[C@@H](C)O)C(=O)N1CCC[C@H]1C(=O)N[C@@H](CO)C(=O)N[C@@H](CO)C(=O)N[C@H](C(=O)N[C@@H](CC(N)=O)C(=O)N[C@H](C(=O)NCC(=O)N[C@@H](CO)C(=O)N[C@@H](CCCNC(=N)N)C(=O)N[C@H](C(=O)N[C@@H](Cc1ccc(O)cc1)C(N)=O)[C@@H](C)O)C(C)C)[C@@H](C)O
notes: also called compound 52
B4: N^ε1-[2-[2-[2-(19-carboxynonadecanoylamino)ethoxy]ethoxy]acetyl]-[Arg17,Pro21,Pro27,His34]-h-amylin (peptide)
peptide: K([AEEA-C20 diacid])CNTATCATQRLANFLRHSSPNFGAIPSSTNVGHNTY-NH2
modifications: disulfide 2-7; N-terminus assumed
SMILES: CC[C@H](C)[C@H](NC(=O)[C@H](C)NC(=O)CNC(=O)[C@H](Cc1ccccc1)NC(=O)[C@H](CC(N)=O)NC(=O)[C@@H]1CCCN1C(=O)[C@H](CO)NC(=O)[C@H](CO)NC(=O)[C@H](Cc1c[nH]cn1)NC(=O)[C@H](CCCNC(=N)N)NC(=O)[C@H](CC(C)C)NC(=O)[C@H](Cc1ccccc1)NC(=O)[C@H](CC(N)=O)NC(=O)[C@H](C)NC(=O)[C@H](CC(C)C)NC(=O)[C@H](CCCNC(=N)N)NC(=O)[C@H](CCC(N)=O)NC(=O)[C@@H](NC(=O)[C@H](C)NC(=O)[C@@H]1CSSC[C@H](NC(=O)[C@@H](N)CCCCNC(=O)COCCOCCNC(=O)CCCCCCCCCCCCCCCCCCC(=O)O)C(=O)N[C@@H](CC(N)=O)C(=O)N[C@@H]([C@@H](C)O)C(=O)N[C@@H](C)C(=O)N[C@@H]([C@@H](C)O)C(=O)N1)[C@@H](C)O)C(=O)N1CCC[C@H]1C(=O)N[C@@H](CO)C(=O)N[C@@H](CO)C(=O)N[C@H](C(=O)N[C@@H](CC(N)=O)C(=O)N[C@H](C(=O)NCC(=O)N[C@@H](Cc1c[nH]cn1)C(=O)N[C@@H](CC(N)=O)C(=O)N[C@H](C(=O)N[C@@H](Cc1ccc(O)cc1)C(N)=O)[C@@H](C)O)C(C)C)[C@@H](C)O
notes: also called compound 91

Experiments:
[1] = target: T1, human calcitonin receptor; experiment: SPA radioligand competition (125I-calcitonin), membranes of BHK cells with human calcitonin receptor
Outline: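 BHK hCTR membranes 35 ng/μL + SPA beads 0.05 mg/well; buffer 50 mM Hepes pH 7.4, 1 mM CaCl2, 5 mM MgCl₂, 0.1% OA, 0.02% Tween20. 120 min, 25° C., shaking. Scintillation count; IC50 by one-site binding competition.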

[2] = target: T1, human calcitonin receptor; experiment: ratio of IC50 at human calcitonin receptor to IC50 at human amylin receptor (SPA competition assays)
Outline: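 Membranes (35 ng/μL final) + SPA beads, 50 mM Hepes pH 7.4 buffer with 1 mM CaCl2, 5 mM MgCl₂, 0.1% OA, 0.02% Tween20; 120 min, 25° C, shaking; centrifuged, counted; IC₅₀ by one-site binding competition.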

[3] = target: T2, human calcitonin receptor; experiment: IC50 at hCTR divided by IC50 at hAmylin-R (SPA competition assays V and VII)
Protocol: The resulting pellet was resuspended, homogenized and centrifuged (20.000 rpm, 15 min) in a buffer containing 20 mM Na-HEPES and 0.1 mM EDTA (pH 7.4, buffer 2). The resulting pellet was resuspended in buffer 2 and protein concentration was measured (BCA protein Assay, Pierce). The homogenate was kept cold during the whole procedure. The membranes were kept at −80° C. until use. The assay was performed in a 384 well Optiplate (PerkinElmer) in a total volume of 40 ul. Membranes were mixed with SPA beads. Final concentration of membranes 35 ng/μL final and SPA beads was 0.05 mg/well. Test-compounds were dissolved in DMSO and further diluted in assay buffer (50 mM Hepes, pH 7.4, 1 mM CaCl2, 5 mM MgCl₂, 0.1% OA and 0.02% Tween20). […] The final mixture was incubated with shaking at 400 rpm for 120 min at 25° C. prior to centrifugation (1500 rpm, 10 min). Samples were analyzed on TopCounter™ (Packard). The IC₅₀ was calculated using (one site binding competition analysis) GraphPad Prism5 as a measure of receptor affinity.
Membranes were prepared in the following way; the cells were rinsed with PBS and incubated with Versene for approximately 5 min before harvesting. The cells were flushed with PBS and the cell-suspension was centrifuged for 5 min at 1000 rpm. Cells were homogenized (Ultrathurrax) in a buffer containing 20 mM Na-HEPES and 10 mM EDTA (pH 7.4) and centrifuged at 20.000 rpm for 15 min. The resulting pellet was resuspended, homogenized and centrifuged (20.000 rpm, 15 min) in a buffer containing 20 mM Na-HEPES and 0.1 mM EDTA (pH 7.4, buffer 2). The resulting pellet was resuspended in buffer 2 and protein concentration was measured (BCA protein Assay, Pierce). The homogenate was kept cold during the whole procedure. The membranes were kept at −80° C. until use. Assay was performed in a 384 well Optiplate (PerkinElmer) in a total volume of 40 ul. Membranes were mixed with SPA beads.

[4] = target: T2, human calcitonin receptor; experiment: SPA competition vs 125I-calcitonin, membranes of BHK cells with human calcitonin receptor (Assay VII)
Protocol: Membranes were prepared in the following way; the cells were rinsed with PBS and incubated with Versene for approximately 5 min before harvesting. The cells were flushed with PBS and the cell-suspension was centrifuged for 5 min at 1000 rpm. Cells were homogenized (Ultrathurrax) in a buffer containing 20 mM Na-HEPES and 10 mM EDTA (pH 7.4) and centrifuged at 20.000 rpm for 15 min. The resulting pellet was resuspended, homogenized and centrifuged (20.000 rpm, 15 min) in a buffer containing 20 mM Na-HEPES and 0.1 mM EDTA (pH 7.4, buffer 2). The resulting pellet was resuspended in buffer 2 and protein concentration was measured (BCA protein Assay, Pierce). The homogenate was kept cold during the whole procedure. The membranes were kept at −80° C. until use. Assay was performed in a 384 well Optiplate (PerkinElmer) in a total volume of 40 ul. Membranes were mixed with SPA beads. Final concentration of membranes 35 ng/μL final and Final concentration of SPA beads was 0.05 mg/well. Test-compounds were dissolved in DMSO and further diluted in assay buffer (50 mM Hepes, pH 7.4, 1 mM CaCl2, 5 mM MgCl₂, 0.1% OA and 0.02% Tween20). […] The final mixture was incubated for 120 min with shaking at 400 rpm at 25° C. prior to centrifugation (1500 rpm, 10 min). Samples were analyzed on TopCounter™ (Packard). The […] was calculated using (one site binding competition analysis) GraphPad Prism5 as a measure of receptor affinity.

Binder | IC50 [1] | Ratio hCT/hAmylin binding [2] | Ratio hCT/hAmylin binding [3] | IC50 [4]
B1 | 22.7 nM | 59.4 | – | –
B2 | – | – | 65.3 | 8.68 nM
B3 | – | – | – | 56.9 nM
B4 | – | – | 101 | 12 nM
